Test [1] concerns the target T1, human OX40 on cells (CHO-hOX40, 293HEK-hOX40, Jurkat-hOX40, activated primary CD4+ T cells) (human, UniProt P43489 29-277).
T1 construct: whole, on cells; The cell type is told in each assay; also called CHO-OX40
T1 sequence (looked up): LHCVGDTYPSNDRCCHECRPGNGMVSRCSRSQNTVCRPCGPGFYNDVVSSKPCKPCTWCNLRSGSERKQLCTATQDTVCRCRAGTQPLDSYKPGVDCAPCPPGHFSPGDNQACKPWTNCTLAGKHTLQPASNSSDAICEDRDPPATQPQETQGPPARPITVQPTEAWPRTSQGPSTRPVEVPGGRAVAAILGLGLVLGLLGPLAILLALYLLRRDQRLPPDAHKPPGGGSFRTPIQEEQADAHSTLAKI
The test is described as follows: flow cytometry, CHO-hOX40, 3.125 nM. A general note: Flow cytometry measures light scatter and fluorescence of single cells or particles in a stream.

Test [2] has as its target T1, human OX40 on cells (CHO-hOX40, …). The test is described as follows: flow cytometry, CHO-hOX40, 12.5 nM.
For test [3] the target is unchanged. The test is described as follows: flow cytometry, CHO-hOX40, 0.09765625 nM.
Test [4] has the same target. The test is described as follows: flow cytometry, CHO-hOX40, 50 nM.
The target is the same in test [5]. The test is described as follows: flow cytometry, CHO-hOX40, 0.024414063 nM.
For test [6] the target is unchanged. Put plainly: flow cytometry, CHO-hOX40, 0.78125 nM.
The target is the same in test [7]. The test is described as follows: flow cytometry, CHO-hOX40, 0.1953125 nM.
Test [8] shares this target. The test is described as follows: flow cytometry, CHO-hOX40, 100 nM.
The target is the same in test [9]. The test is described as follows: flow cytometry, CHO-hOX40, 0.390625 nM.
The target is the same in test [10]. Put plainly: flow cytometry, CHO-hOX40, 6.25 nM.
For test [11] the target is unchanged. Put plainly: flow cytometry, CHO-hOX40, 25 nM.
The target is the same in test [12]. The test is described as follows: flow cytometry, CHO-hOX40, 1.5625 nM.
For test [13] the target is unchanged. The test is described as follows: flow cytometry, CHO-hOX40.
Test [14] shares this target. Put plainly: flow cytometry, CHO-hOX40, 200 nM.
Test [15] has the same target. The test is described as follows: flow cytometry, CHO-hOX40, 0.048828125 nM.
For test [16], the target named is T2, mouse OX40Fc (Acro Biosystems) (mouse, UniProt P47741 20-211, limits assumed).
T2 construct: Bought; not shown: Fc
T2 sequence (looked up): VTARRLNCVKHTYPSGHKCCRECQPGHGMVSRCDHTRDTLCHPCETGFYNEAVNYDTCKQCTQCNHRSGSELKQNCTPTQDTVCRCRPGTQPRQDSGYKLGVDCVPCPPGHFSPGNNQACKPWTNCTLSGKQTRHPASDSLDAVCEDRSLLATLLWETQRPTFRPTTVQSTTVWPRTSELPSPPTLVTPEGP
The test is described as follows: BLI, IgG1 on tip, mouse OX40-Fc 100 nM, avid. On the technique in general: In BLI a coated tip is dipped into the sample, and binding shifts an interference pattern.

The target in test [17] is T3, cyno OX40_Fc (Acro Biosystems) (cyno).
T3 construct: Bought
Put plainly: BLI, IgG1 on tip, cyno OX40-Fc 100 nM, avid.

The target of test [18] is T1, human OX40 on cells (CHO-hOX40, …). Put plainly: flow cytometry, CHO-hOX40, 100 nM. This is another data set of the same source.
In test [19] the target is T4, human OX40_Fc (R&D Systems) (human, UniProt P43489 29-216).
T4 construct: Bought
Put plainly: BLI, IgG1 on tip, hOX40-Fc 50 nM, avid.

Test [20] deals with T1, human OX40 on cells (CHO-hOX40, …). The test is described as follows: flow cytometry, MFI on CHO-hOX40 over wild-type CHO.
Test [21] has the same target. Put plainly: cell-based or functional assay.

B1: Hu106-222 (IgG2) (antibody, V domains shown)
VH: QVQLVQSGSELKKPGASVKVSCKASGYTFTDYSMHWVRQAPGQGLKWMGWINTETGEPTYADDFKGRFVFSLDTSVSTAYLQISSLKAEDTAVYYCANPYYDYVSYYAMDYWGQGTLVTVSS
VL: DIQMTQSPSSLSASVGDRVTITCKASQDVSTAVAWYQQKPGKAPKLLIYSASYLYTGVPSRFSGSGSGTDFTFTISSLQPEDIATYYCQQHYSTPRTFGQGTKLEIK
As to B1, the MFI in test [1] came to 660000 MFI; in [2], 1.52e+06 MFI; in test [3], 28200 MFI; in test [4], 1.59e+06 MFI; in test [5] it was 14600 MFI; in test [6], 188000 MFI. The MFI in [7] amounted to 49500 MFI; in test [8], 2.39e+06 MFI; in test [9] it was 101000 MFI; in [10], 1.06e+06 MFI; in [11] it was 2.16e+06 MFI; in test [12], 334000 MFI. The figures for the MFI in [14] and in [15] were 2.55e+06 MFI and 15400 MFI, respectively. The molecule also registered a 50% effective concentration (EC50) in test [13] of 8.37 nM.

B2: ADI-23515, IgG1 format (antibody)
heavy: not shown
light: EIVLTQSPGTLSLSPGERATLSCRASQSVSSSYLAWYQQKPGQAPRLLIYGASSRATGIPDRFSGSGSGTDFTLTISRLEPEDFAVYYCQQSERSPFTFGGGTKVEIKRTVAAPSVFIFPPSDEQLKSGTASVVCLLNNFYPREAKVQWKVDNALQSGNSQESVTEQDSKDSTYSLSSTLTLSKADYEKHKVYACEVTHQGLSSPVTKSFNRGEC
notes: Made in yeast or CHO cells; also called ADI-23515-g1
As to B2, the Kd in test [16] was 8.98 nM; in [17] it was 1.09 nM; in [19], 0.273 nM. Also, in test [18], the “CHO-OX40 binding intensity (MFI)” value stood at 181000 MFI. The Fold difference in test [20] was found to be 1550 fold. The “EC50, NFkB-luciferase reporter in Jurkat-hOX40 mixed with Raji cells” value in [21] is 0.174 nM.

Usually EC50 stands for the concentration giving half of the maximal effect. The low end stands for higher potency in that assay, the high end for lower potency in that assay. As usually defined, the Kd is the concentration at which binding is half-saturated. Low values mean higher affinity, high ones lower affinity.

(Values after US20200140562A1 (Innovent, published 2020).)
